Values of other authors, collected in publication PMC3214078.

Legend:
[1] = target: Histone H3 peptide N-terminal tail (Homo sapiens) (UniProt P68431); assay: ITC
[2] = target: Histone H3 peptide N-terminal tail (Homo sapiens) (UniProt P68431); assay: tryptophan fluorescence

Chain of UHRF1 PHD (Q96T88 307-369): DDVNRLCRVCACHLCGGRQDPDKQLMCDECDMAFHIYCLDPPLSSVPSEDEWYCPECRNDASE

Kd [1]: 930 nM | Kd [2]: 3800 nM
Substance: UHRF1 PHD (from UniProt Q96T88)
